B1: BRPF2 (31–80), His6 tag removed, co-expressed with the HBO1 MYST domain (domain or fragment, human, UniProt O95696 31-80, looked up)
chain: LTYAQAQRMVEIEIEGRLHRISIFDPLEIILEDDLTAQEMSECNSNKENS
B2: Sumo–BRPF2 (1–205) (domain or fragment, human, UniProt O95696 1-205, looked up)
chain: MRRKGRCHRGSAARHPSSPCSVKHSPTRETLTYAQAQRMVEIEIEGRLHRISIFDPLEIILEDDLTAQEMSECNSNKENSERPPVCLRTKRHKNNRVKKKNEALPSAHGTPASASALPEPKVRIVEYSPPSAPRRPPVYYKFIEKSAEELDNEVEYDMDEEDYAWLEIVNEKRKGDCVPAVSQSMFEFLMDRFEKESHCENQKQG
B3: Sumo–BRPF2 (31–80) E41A/E43A/E45A (domain or fragment, human, UniProt O95696 31-80, looked up)
chain: LTYAQAQRMVAIAIAGRLHRISIFDPLEIILEDDLTAQEMSECNSNKENS
B4: Sumo–BRPF2 (31–80) E41K/E43K/E45K (domain or fragment, human, UniProt O95696 31-80, looked up)
chain: LTYAQAQRMVKIKIKGRLHRISIFDPLEIILEDDLTAQEMSECNSNKENS
B5: Sumo–BRPF2 (31–80) E62A/D63A/D64A (domain or fragment, human, UniProt O95696 31-80, looked up)
chain: LTYAQAQRMVEIEIEGRLHRISIFDPLEIILAAALTAQEMSECNSNKENS
B6: Sumo–BRPF2 (31–80) E62K/D63K/D64K (domain or fragment, human, UniProt O95696 31-80, looked up)
chain: LTYAQAQRMVEIEIEGRLHRISIFDPLEIILKKKLTAQEMSECNSNKENS
B7: Sumo–BRPF2 (1–80) (domain or fragment, human, UniProt O95696 1-80, looked up)
chain: MRRKGRCHRGSAARHPSSPCSVKHSPTRETLTYAQAQRMVEIEIEGRLHRISIFDPLEIILEDDLTAQEMSECNSNKENS
B8: Sumo–BRPF2 (31–62) (domain or fragment, human, UniProt O95696 31-62, looked up)
chain: LTYAQAQRMVEIEIEGRLHRISIFDPLEIILE
B9: Sumo–BRPF2 (39–62) (domain or fragment, human, UniProt O95696 39-62, looked up)
chain: MVEIEIEGRLHRISIFDPLEIILE
B10: Sumo–BRPF2 (39–66) (domain or fragment, human, UniProt O95696 39-66, looked up)
chain: MVEIEIEGRLHRISIFDPLEIILEDDLT

molecular target: HBO1 MYST domain (residues 336–611), without tag, co-expressed with BRPF2 (human, UniProt O95251 336-611); test: crystal structure
Sequence (O95251 336-611): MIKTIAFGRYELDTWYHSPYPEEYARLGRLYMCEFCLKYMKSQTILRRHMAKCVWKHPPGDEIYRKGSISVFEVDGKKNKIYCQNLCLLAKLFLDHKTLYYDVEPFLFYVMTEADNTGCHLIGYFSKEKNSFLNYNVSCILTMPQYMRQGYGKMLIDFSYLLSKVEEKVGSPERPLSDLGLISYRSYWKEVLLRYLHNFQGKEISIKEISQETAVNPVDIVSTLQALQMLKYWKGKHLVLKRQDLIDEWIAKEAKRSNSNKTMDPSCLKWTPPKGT

Q: For B1, which “stoichiometry N” value is on record?
A: 1

molecular target: GST-fused HBO1 MYST domain (residues 336–611) (human, UniProt O95251 336-611); test: pull-down
Sequence (O95251 336-611): as above

Q: Does B2 bind?
A: binds

Q: Does B3 bind?
A: binds

Q: Does B4 bind?
A: binds

Q: Does B5 bind?
A: binds

Q: Does B6 bind?
A: binds

Q: Does B7 bind?
A: binds

Q: Does B8 bind?
A: binds

Q: Does B9 bind?
A: binds

Q: Does B10 bind?
A: binds
